Test results from US20250218531A1.
Values joined by “and” are separate entries in the source; they are usually repeats but may differ in a detail not shown here. Equal values may be shown once. Read-outs that look alike come from different tables or passages of the source.

Columns and labels:
[1] = target: human vascular endothelial growth factor A (VEGF-A) (human) (UniProt P15692); test: SPR, table row 20
[2] = target: human epidermal growth factor receptor 2 (HER2) extracellular domain (human) (UniProt P04626); test: SPR, table row 20
[3] = target: human vascular endothelial growth factor A (VEGF-A) (human) (UniProt P15692); test: SPR, table row 15
[4] = target: human vascular endothelial growth factor A (VEGF-A) (human) (UniProt P15692)
[5] = target: human vascular endothelial growth factor A (VEGF-A) (human) (UniProt P15692); test: SPR, table row 12
[6] = target: human epidermal growth factor receptor 2 (HER2) extracellular domain (human) (UniProt P04626); test: SPR, table row 12
[7] = target: human vascular endothelial growth factor A (VEGF-A) (human) (UniProt P15692); test: SPR, table row 17
[8] = target: human vascular endothelial growth factor A (VEGF-A) (human) (UniProt P15692); test: SPR, table row 18
[9] = target: human vascular endothelial growth factor A (VEGF-A) (human) (UniProt P15692); test: SPR
[10] = target: human epidermal growth factor receptor 2 (HER2) extracellular domain (human) (UniProt P04626); test: SPR
[11] = target: human vascular endothelial growth factor A (VEGF-A) (human) (UniProt P15692); test: not stated (FIG. 6A)
[12] = target: human epidermal growth factor receptor 2 (HER2) extracellular domain (human) (UniProt P04626); test: not stated (FIG. 6A)

Sequence of human vascular endothelial growth factor A (VEGF-A) (human) (P15692 220-313 limits assumed): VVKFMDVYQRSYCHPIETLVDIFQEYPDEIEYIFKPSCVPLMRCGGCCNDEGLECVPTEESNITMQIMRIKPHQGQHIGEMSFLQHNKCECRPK

For Trastuzumab bH1 (antibody), the Kd [1] was 24.2 nM, the koff [1] was 0.00026 s⁻¹ and the kon [1] was 10800 M⁻¹ s⁻¹. The Kd [2] was 10.3 nM, the koff [2] was 9.72e-05 s⁻¹ and the kon [2] was 9470 M⁻¹ s⁻¹. For the same substance, the Kd [3] was 21.8 nM, the koff [3] was 0.000254 s⁻¹ and the kon [3] was 11700 M⁻¹ s⁻¹. The Kd [4] was 24.8 nM and 26.2 nM and 31.1 nM, the koff [4] was 0.00027 s⁻¹ and 0.000282 s⁻¹ and 0.000342 s⁻¹ and the kon [4] was 10900 M⁻¹ s⁻¹ and 10800 M⁻¹ s⁻¹ and 11000 M⁻¹ s⁻¹. The Kd [5] was 18.4 nM, the koff [5] was 0.000211 s⁻¹ and the kon [5] was 11500 M⁻¹ s⁻¹. The Kd [6] was 3.22 nM, the koff [6] was 6.2e-05 s⁻¹ and the kon [6] was 19300 M⁻¹ s⁻¹. For the same substance, the Kd [7] was 22.7 nM, the koff [7] was 0.00028 s⁻¹ and the kon [7] was 12300 M⁻¹ s⁻¹. For the same substance, the Kd [8] was 23.2 nM, the koff [8] was 0.00025 s⁻¹ and the kon [8] was 10800 M⁻¹ s⁻¹. For the same substance, the Kd [9] was 23.5 nM, the Kd [10] was 32.9 nM and the Kd [11] was 300 nM. The Kd [12] was 26 nM.
